{"source": "the supplement of paper PMC10567573", "parents": {"B1": {"name": "ZNF649 (parent)", "chain": "MTKAQESLTLEDVAVDFTWEEWQF"}}}
{"variants_of": "B1", "assay": "protein stability index of a GFP-peptide fusion (GPS, HEK-293T) (PSI 1-6); higher = more stable", "details": "c terminus: a fixed tail appended"}
{"variant": "MTKAQESLTLEDVAVDFTWIEWQF", "protein stability index": 1.87}
{"variant": "MTKAQESLTLEDVAVDFTWEESQF", "protein stability index": 4.78}
{"variant": "MTKYQESLTLEDVAVDFTWEEWQF", "protein stability index": 2.56}
{"variant": "MTKAQESLTLEDVDVDFTWEEWQF", "protein stability index": 4.04}
{"variant": "MTKAQESLTLEDVAVVFTWEEWQF", "protein stability index": 2.29}
{"variant": "MTKAQESLTLEDVAVDFIWEEWQF", "protein stability index": 2.41}
{"variant": "MTKAQESLTLEDVAVDFNWEEWQF", "protein stability index": 3.47}
{"variant": "MTKAQESLLLEDVAVDFTWEEWQF", "protein stability index": 2.54}
{"variant": "LTKAQESLTLEDVAVDFTWEEWQF", "protein stability index": 2.94}
{"variant": "MTKRQESLTLEDVAVDFTWEEWQF", "protein stability index": 2.97}
{"variant": "MTKAQESLTLEDVAVDFTWEEWAF", "protein stability index": 4.2}
{"variant": "MTKAQESLTLETVAVDFTWEEWQF", "protein stability index": 2.2}
{"variant": "MTKAQESLTLEDVAVDFTWKEWQF", "protein stability index": 2.51}
{"variant": "MTKAQESLTLEDVTVDFTWEEWQF", "protein stability index": 2.92}
{"variant": "MTKAQESLTHEDVAVDFTWEEWQF", "protein stability index": 4.42}
{"variant": "MTKAQESLTLTDVAVDFTWEEWQF", "protein stability index": 2.86}
{"variant": "MTKAQERLTLEDVAVDFTWEEWQF", "protein stability index": 3.55}
{"variant": "MTKAQESLTLEDMAVDFTWEEWQF", "protein stability index": 3.54}
{"variant": "MTKAQESLTLEDVAVDFVWEEWQF", "protein stability index": 1.95}
{"variant": "MTKAQKSLTLEDVAVDFTWEEWQF", "protein stability index": 3.02}
{"variant": "MTKAQESLTLEDVAVDFTWEDWQF", "protein stability index": 3.36}
{"variant": "MTKAQESLTIEDVAVDFTWEEWQF", "protein stability index": 2.81}
{"variant": "MTKAQESLTLGDVAVDFTWEEWQF", "protein stability index": 2.98}
{"variant": "MTKAQESLTDEDVAVDFTWEEWQF", "protein stability index": 4.91}
{"variant": "MTKAQESLTLNDVAVDFTWEEWQF", "protein stability index": 3.28}
{"variant": "MTKAQESLTLEDVAVDFTWEEWCF", "protein stability index": 2.26}
{"variant": "MTKAQESSTLEDVAVDFTWEEWQF", "protein stability index": 4.47}
{"variant": "MTKAQESLTLEDVAVDHTWEEWQF", "protein stability index": 3.94}
{"variant": "MTKAQESLTLEDVAVYFTWEEWQF", "protein stability index": 2.64}
{"variant": "MTKAQESLTLEDVAVDFTWCEWQF", "protein stability index": 2.48}
{"variant": "MTKAQESLTLEIVAVDFTWEEWQF", "protein stability index": 2.95}
{"variant": "MTKAQESLTLEDVYVDFTWEEWQF", "protein stability index": 1.65}
{"variant": "MTKAQESLTLEDVAVDFTWEEWMF", "protein stability index": 2.72}
{"variant": "MTKAQESLTLEDVAVDFCWEEWQF", "protein stability index": 2.64}
{"variant": "MTKAQESLTLEDVAVDFTWAEWQF", "protein stability index": 2.48}
{"variant": "MTKAQMSLTLEDVAVDFTWEEWQF", "protein stability index": 1.92}
{"variant": "MTKAQESLTLEDVAVDFTWEEWQY", "protein stability index": 3.4}
{"variant": "MTKAQESLTLEDVAVDTTWEEWQF", "protein stability index": 3.95}
{"variant": "MTKAQESLTLEDVIVDFTWEEWQF", "protein stability index": 1.88}
{"variant": "MTKAQESLTLEDVAVDFTWECWQF", "protein stability index": 1.58}
{"variant": "MTKAQESLYLEDVAVDFTWEEWQF", "protein stability index": 2.41}
{"variant": "MTKAQESLTLEDVAVDYTWEEWQF", "protein stability index": 3.76}
{"variant": "MTKAQESLRLEDVAVDFTWEEWQF", "protein stability index": 3.59}
{"variant": "VTKAQESLTLEDVAVDFTWEEWQF", "protein stability index": 3.07}
{"variant": "CTKAQESLTLEDVAVDFTWEEWQF", "protein stability index": 2.82}
{"variant": "MTKAQESLTLEDVAVDFTWELWQF", "protein stability index": 1.23}
{"variant": "MTKAQESLTLEDVAVDFTWEEWTF", "protein stability index": 3.1}
{"variant": "MTKAQESLTLEDRAVDFTWEEWQF", "protein stability index": 3.45}
{"variant": "MTKAQESLTLEDVAVDFTWEEWDF", "protein stability index": 3.51}
{"variant": "MTKAQESLTLEFVAVDFTWEEWQF", "protein stability index": 3.77}
{"variant": "MTKAQESLTLEDVMVDFTWEEWQF", "protein stability index": 2.46}
{"variant": "MTKAQESLTLEYVAVDFTWEEWQF", "protein stability index": 4.33}
{"variant": "MTKAQESDTLEDVAVDFTWEEWQF", "protein stability index": 4.41}
{"variant": "MTKAQESKTLEDVAVDFTWEEWQF", "protein stability index": 4.31}
{"variant": "MTKAQESLTLEDVAVDFTWDEWQF", "protein stability index": 3.14}
{"variant": "MTKAQESLTLEDVAVDWTWEEWQF", "protein stability index": 3.31}
{"variant": "MDKAQESLTLEDVAVDFTWEEWQF", "protein stability index": 3.5}
{"variant": "MTKNQESLTLEDVAVDFTWEEWQF", "protein stability index": 3.04}
{"variant": "MTKAQESLTLEDVAVAFTWEEWQF", "protein stability index": 3.34}
{"variant": "MTKAQESLELEDVAVDFTWEEWQF", "protein stability index": 3.94}
{"variant": "MTKAQESLTLEDFAVDFTWEEWQF", "protein stability index": 2.54}
{"variant": "MTRAQESLTLEDVAVDFTWEEWQF", "protein stability index": 3.12}
{"variant": "MTKAQTSLTLEDVAVDFTWEEWQF", "protein stability index": 2.71}
{"variant": "MTKAQESLTLEDVAVDFTWEEWHF", "protein stability index": 2.02}
{"variant": "MTKAQESLTLEDVAVDFTWEEWRF", "protein stability index": 3.56}
{"variant": "MTKAQESLTLEDVSVDFTWEEWQF", "protein stability index": 3.06}
{"variant": "MTLAQESLTLEDVAVDFTWEEWQF", "protein stability index": 2.84}
{"variant": "NTKAQESLTLEDVAVDFTWEEWQF", "protein stability index": 4.67}
{"variant": "MTKAQESLTLEDVAVDFTWEEAQF", "protein stability index": 4.17}
{"variant": "MTKAQESLTLEDVAVDFTWEEWKF", "protein stability index": 3.28}
{"variant": "MTKAQESLTLEDYAVDFTWEEWQF", "protein stability index": 3.17}
{"variant": "MTKAQDSLTLEDVAVDFTWEEWQF", "protein stability index": 3.14}
{"variant": "MTKAQESLTLEKVAVDFTWEEWQF", "protein stability index": 2.7}
{"variant": "MTKAQESLTLEDVQVDFTWEEWQF", "protein stability index": 3.61}
{"variant": "MTKPQESLTLEDVAVDFTWEEWQF", "protein stability index": 3.75}
{"variant": "MTKAQESLTLEDVAIDFTWEEWQF", "protein stability index": 2.53}
{"variant": "MTKAQESLTLEDVASDFTWEEWQF", "protein stability index": 3.35}
{"variant": "MTKAQESLTLEDVAVDFTWEEIQF", "protein stability index": 3.54}
{"variant": "MTKAQESLTLENVAVDFTWEEWQF", "protein stability index": 2.23}
{"variant": "MTKAQESLTNEDVAVDFTWEEWQF", "protein stability index": 4.29}
{"variant": "MRKAQESLTLEDVAVDFTWEEWQF", "protein stability index": 2.72}
{"variant": "MTKAQESLTLEDVAVDFTIEEWQF", "protein stability index": 2.56}
{"variant": "MTKAQESLTLEDVAVTFTWEEWQF", "protein stability index": 3.32}
{"variant": "MTKAQETLTLEDVAVDFTWEEWQF", "protein stability index": 3.67}
{"variant": "MTKAQESLTLEDVAVDFTWEEWQK", "protein stability index": 4.87}
{"variant": "MTKAQESLTLEDVAVDFTREEWQF", "protein stability index": 4.07}
{"variant": "MTKAQESLTLEDVAVDSTWEEWQF", "protein stability index": 4.52}
{"variant": "MTKAQESLTLEDVAVDFTWEHWQF", "protein stability index": 1.53}
{"variant": "MTKAQESLTLEDVAVDFTWEGWQF", "protein stability index": 1.49}
{"variant": "MTKIQESLTLEDVAVDFTWEEWQF", "protein stability index": 2.89}
{"variant": "MTKAQESLTLEDVAVDFTVEEWQF", "protein stability index": 3.68}
{"variant": "MTKAQESLTLEDVCVDFTWEEWQF", "protein stability index": 2.4}
{"variant": "MTKAQESLTLEDVAVDFTWEAWQF", "protein stability index": 2.12}
{"variant": "MTKAQESTTLEDVAVDFTWEEWQF", "protein stability index": 3.93}
